The data set concerns the molecule itself. The experiment in a line: cryo-EM structure; purified virions in EM buffer (10 mM HEPES pH 7.6, 200 mM NaCl, 5 mM MgCl2, 1 mM KCl, 1 mM CaCl2), icosahedral reconstruction and focussed classification of P domain dimers.

A word on the stoichiometry N: it is a count of units in the complex or per binding partner.

B1: murine norovirus (MNV-1 strain CW1P3) major structural protein VP1, wild type (natural protein)
chain: MRMSDGAAPKANGSEASGQDLVPAAVEQAVPIQPVAGAALAAPAAGQINQIDPWIFQNFVQCPLGEFSISPRNTPGEILFDLALGPGLNPYLAHLSAMYTGWVGNMEVQLVLAGNAFTAGKVVVALVPPYFPKGSLTTAQITCFPHVMCDVRTLEPIQLPLLDVRRVLWHATQDQEESMRLVCMLYTPLRTNSPGDESFVVSGRLLSKPAADFNFVYLTPPIERTIYRMVDLPVIQPRLCTHARWPAPVYGLLVDPSLPSNPQWQNGRVHVDGTLLGTTPISGSWVSCFAAEAAYKFQSGTGEVATFTLIEQDGSAYVPGDRAAPLGYPDFSGQLEIEVQTETTKTGDKLKVTTFEMILGPTTNADQAPYQGRVFASVTAAASLDLVDGRVRAVPRSIYGFQDTIPEYNDGLLVPLAPPIGPFLPGEVLLRFRTYMRQIDTADAAAEAIDCALPQEFVSWFASNAFTVQSEALLLRYRNTLTGQLLFECKLYNEGYIALSYSGSGPLTFPTDGIFEVVSWVPRLYQLASVGSLATGRMLKQ
notes: major capsid protein VP1 (ORF2) of murine norovirus MNV-1 strain CW1P3, as it stands in infectious virions; N-terminal region, S domain, P domain (P1, P2); modelled from D20 (A-type), S17 (B-type), V30 (C-type); Capsid: 90 dimers (AB and CC) in T = 3 symmetry; also called wtMNV VP1; MNV VP1; copies: 180
As to B1, the “stoichiometry N” value was determined as 180 VP1 chains in the capsid.

Values taken from article PMC7108717, “Dynamics in the murine norovirus capsid revealed by high-resolution cryo-EM” (PLoS Biology, 2020).
